# T1: Recombinant Human IL-17 (human, UniProt Q16552 20-155, limits assumed)
# T1 construct: bought reagent
# T1 sequence (looked up): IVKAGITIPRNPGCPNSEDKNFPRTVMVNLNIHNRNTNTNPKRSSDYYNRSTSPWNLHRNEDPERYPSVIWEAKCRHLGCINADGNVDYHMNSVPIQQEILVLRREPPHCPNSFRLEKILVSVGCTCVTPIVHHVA
# T2: Recombinant Human IL-17 (human, UniProt Q16552 20-155, limits assumed)
# T2 sequence (looked up): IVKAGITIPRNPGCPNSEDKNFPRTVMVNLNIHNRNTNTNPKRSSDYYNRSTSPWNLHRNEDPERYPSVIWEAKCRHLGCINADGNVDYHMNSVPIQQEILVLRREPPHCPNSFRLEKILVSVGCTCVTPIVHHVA
# Legend:
# Recombinant Human IL-1β [1] = biological target: T3, Recombinant Human IL-1β (human, UniProt P01584 117-269); experiment: Biacore SPR; N-terminal VD
# T3 construct: bought reagent; also called IL-1B
# Procedure, shortened: (§1)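 SPR, 25° C, HBS-EP (10 mM HEPES pH 7.4, 150 mM NaCl, 3 mM EDTA, 0.005% P20). Capture via anti-mouse IgG Fcγ chip; analyte 10−200 nM at 25 μl/min. 1:1 Langmuir global fit; KD = koff/kon.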
# Recombinant Human IL-17 [2] = biological target: T1, Recombinant Human IL-17; experiment: Biacore SPR; C-terminal VD
# Procedure, shortened: as §1
# Recombinant Human IL-1β [3] = biological target: T4, Recombinant Human IL-1β (human, UniProt P01584 117-269); experiment: Biacore SPR; N-terminal VD
# T4 construct: Bought reagent; also called IL-1B
# Procedure, shortened: as §1
# Recombinant Human IL-17 [4] = biological target: T2, Recombinant Human IL-17; experiment: cell-based or functional assay
# Recombinant Human IL-17 [5] = biological target: T2, Recombinant Human IL-17; experiment: Biacore SPR; C-terminal VD
# Procedure, shortened: as §1
# Recombinant Human IL-1β [6] = biological target: T4, Recombinant Human IL-1β; experiment: cell-based or functional assay
Binder,Kd (Recombinant Human IL-1β [1]) [nM],koff (Recombinant Human IL-1β [1]) [s⁻¹],kon (Recombinant Human IL-1β [1]) [M⁻¹ s⁻¹],Kd (Recombinant Human IL-17 [2]) [nM],koff (Recombinant Human IL-17 [2]) [s⁻¹],kon (Recombinant Human IL-17 [2]) [M⁻¹ s⁻¹],Kd (Recombinant Human IL-1β [3]) [nM],koff (Recombinant Human IL-1β [3]) [s⁻¹],kon (Recombinant Human IL-1β [3]) [M⁻¹ s⁻¹],C-terminal VD IL-17 Neutralization Assay EC50 (Recombinant Human IL-17 [4]) [nM],Kd (Recombinant Human IL-17 [5]) [nM],koff (Recombinant Human IL-17 [5]) [s⁻¹],kon (Recombinant Human IL-17 [5]) [M⁻¹ s⁻¹],N-Terminal VD IL-1β Neutralization Assay EC50 (Recombinant Human IL-1β [6]) [nM]
"DVD1633 (bispecific antibody, human IgG1, kappa, DVD-Ig: outer AB270, inner AB274; V1/V2 vectors: wild type hIgG1, kappa) heavy: not shown light: DTQVTQSPSSLSASVGDRVTITCITSTDIDVDMNWYQQKPGKPPKLLISQGNTLRPGVPSRFSSSGSGTDFTFTISSLQPEDFATYYCLQSDNLPLTFGQGTKLEIKRTVAAPEIVLTQSPDFQSVTPKEKVTITCRASQDIGSELHWYQQKPDQPPKLLIKYASHSTSGVPSRFSGSGSGTDFTLTINGLEAEDAGTYYCHQTDSLPYTFGPGTKVDIKRTVAAPSVFIFPPSDEQLKSGTASVVCLLNNFYPREAKVQWKVDNALQSGNSQESVTEQDSKDSTYSLSSTLTLSKADYEKHKVYACEVTHQGLSSPVTKSFNRGEC",,,,,,,0.063,0.00057,9e+06,0.146,< 0.0063,< 1e-06,160000,0.371
"DVD1629 (bispecific antibody, human IgG1, kappa, V1 wt hIgG1, V2 kappa; also called DVD1629H; DVD1629L) heavy: not shown light: DIQMTQSPSSLSASVGDRVTITCRASGNIHNYLTWYQQTPGKAPKLLIYNAKTLADGVPSRFSGSGSGTDYTFTISSLQPEDIATYYCQHFWSIPYTFGQGTKLQITRTVAAPEIVLTQSPDFQSVTPKEKVTITCRASQDIGSELHWYQQKPDQPPKLLIKYASHSTSGVPSRFSGSGSGTDFTLTINGLEAEDAGTYYCHQTDSLPYTFGPGTKVDIKRTVAAPSVFIFPPSDEQLKSGTASVVCLLNNFYPREAKVQWKVDNALQSGNSQESVTEQDSKDSTYSLSSTLTLSKADYEKHKVYACEVTHQGLSSPVTKSFNRGEC",0.039,7.3e-05,1.9e+06,≤ 0.00011,< 1e-06,1.4e+06,,,,,,,,

# Second part, the binder after the results:
Kd (Recombinant Human IL-1β [1]) [nM],koff (Recombinant Human IL-1β [1]) [s⁻¹],kon (Recombinant Human IL-1β [1]) [M⁻¹ s⁻¹],Kd (Recombinant Human IL-17 [2]) [nM],koff (Recombinant Human IL-17 [2]) [s⁻¹],kon (Recombinant Human IL-17 [2]) [M⁻¹ s⁻¹],Kd (Recombinant Human IL-1β [3]) [nM],koff (Recombinant Human IL-1β [3]) [s⁻¹],kon (Recombinant Human IL-1β [3]) [M⁻¹ s⁻¹],C-terminal VD IL-17 Neutralization Assay EC50 (Recombinant Human IL-17 [4]) [nM],Kd (Recombinant Human IL-17 [5]) [nM],koff (Recombinant Human IL-17 [5]) [s⁻¹],kon (Recombinant Human IL-17 [5]) [M⁻¹ s⁻¹],N-Terminal VD IL-1β Neutralization Assay EC50 (Recombinant Human IL-1β [6]) [nM],Binder
0.063,0.00054,8.6e+06,0.0051,3.2e-06,630000,,,,,,,,,"DVD1625 (bispecific antibody, human IgG1, kappa, DVD-Ig, outer AB271, inner AB273, linker set 3; V1 wt hIgG1, V2 kappa; also called DVD1625H; DVD1625L) heavy: not shown light: DTVVTQSPAFLSVTPGEKVTITCITSTDIDVDMNWYQQKPDQPPKLLISQGNTLRPGVPSRFSSSGSGTDFTFTISSLEAEDAATYYCLQSDNLPLTFGQGTKLEIKRTVAAPDIQMTQSPSSLSASVGDRVTITCRASSGIISYIDWFQQKPGKAPKRLIYATFDLASGVPSRFSGSGSGTDYTLTISSLQPEDFATYYCRQVGSYPETFGQGTKLEIKRTVAAPSVFIFPPSDEQLKSGTASVVCLLNNFYPREAKVQWKVDNALQSGNSQESVTEQDSKDSTYSLSSTLTLSKADYEKHKVYACEVTHQGLSSPVTKSFNRGEC"
0.017,2.2e-05,1.3e+06,≤ 0.00014,< 1e-06,250000,,,,,,,,,"DVD1631 (bispecific antibody, human IgG1, kappa, V1 wt hIgG1, V2 kappa; also called DVD1631H; DVD1631L) heavy: not shown light: DIQMTQSPSSLSASVGDRVTITCRASGNIHNYLTWYQQTPGKAPKLLIYNAKTLADGVPSRFSGSGSGTDYTFTISSLQPEDIATYYCQHFWSIPYTFGQGTKLQITRTVAAPEIVLTQSPDFQSVTPKEKVTITCRASQDIGSELHWYQQKPDQPPKLLIKYASHSTSGVPSRFSGSGSGTDFTLTINGLEAEDAGTYYCHQTDSLPYTFGPGTKVDIKRTVAAPSVFIFPPSDEQLKSGTASVVCLLNNFYPREAKVQWKVDNALQSGNSQESVTEQDSKDSTYSLSSTLTLSKADYEKHKVYACEVTHQGLSSPVTKSFNRGEC"
0.086,0.00059,6.8e+06,0.0084,1.7e-06,200000,,,,,,,,,"DVD1627 (bispecific antibody, human IgG1, kappa, DVD-Ig, outer AB272, inner AB273, linker set 3; V1 wt hIgG1, V2 kappa; also called DVD1627H; DVD1627L) heavy: not shown light: ETTVTQSPSSLSASVGDRVTITCITSTDIDVDMNWYQQKPGKPPKLLISQGNTLRPGVPSRFSSSGSGTDFTFTISSLQPEDFATYYCLQSDNLPLTFGQGTKLEIKRTVAAPDIQMTQSPSSLSASVGDRVTITCRASSGIISYIDWFQQKPGKAPKRLIYATFDLASGVPSRFSGSGSGTDYTLTISSLQPEDFATYYCRQVGSYPETFGQGTKLEIKRTVAAPSVFIFPPSDEQLKSGTASVVCLLNNFYPREAKVQWKVDNALQSGNSQESVTEQDSKDSTYSLSSTLTLSKADYEKHKVYACEVTHQGLSSPVTKSFNRGEC"
